Read-outs that look alike come from different tables or passages of the source.
Legend:
Test in all cases: BLI, no stress
hMPV079 = target: T1, hMPV079 (hMPV A, UniProt Q6WB98 19-102)
T1 construct: T411C-Q434C, A140C-S149C, A459P
Protocol: (§1) The OCTET HTX (Sartorius, Gottingen, Germany) instrument was used to evaluate the expression and conformational integrity for each mutant. All measurements were conducted at 30° C. temperature in 96-well black plates (Corning, Corning, NY) with a final volume of 240 μL per well at a constant agitation rate of 1000 RPM.
(§2) Conformation integrity of hMPV A F protein mutants were evaluated by thermal stress experiments. Crude cell culture supernatants were normalized based on the results of the titer quantitation and then incubated for 1 hour at room temperature and two higher temperatures. […] Anti-Human IgG Fc Capture (AHC) biosensors were first equilibrated in PB before being dipped into more PB to establish the initial baseline. […] The mAb-bound biosensors were then dipped into the thermal stressed cell culture supernatants for 5 minutes. The kinetics analysis was done by OCTET data analysis software (version 12.0, Sartorius) based on curve fitting of the entire associate step.

hMPV097 = target: T2, hMPV097 (hMPV A, UniProt Q6WB98 19-102)
T2 construct: T411C-Q434C, E146C-T160C, A459P, G239A, T49I, S149T, T365I
Protocol: as §1, §2

hMPV A F WT Control [1] = target: T3, hMPV A F WT Control (hMPV A, UniProt Q6WB98 19-102)
Protocol: as §1, §2

hMPV085 = target: T4, hMPV085 (hMPV A, UniProt Q6WB98 19-102)
T4 construct: T411C-Q434C, L141C-A161C, A459P
Protocol: as §1, §2

hMPV081 = target: T5, hMPV081 (hMPV A, UniProt Q6WB98 19-102)
T5 construct: T411C-Q434C, A140C-S149C, T365I
Protocol: as §1, §2

hMPV090 = target: T6, hMPV090 (hMPV A, UniProt Q6WB98 19-102)
T6 construct: T411C-Q434C, L141C-A161C, A459P, G239A, T49I, S149T, T365I
Protocol: as §1, §2

hMPV088 = target: T7, hMPV088 (hMPV A, UniProt Q6WB98 19-102)
T7 construct: T411C-Q434C, L141C-A161C, G239A
Protocol: as §1, §2

hMPV084 = target: T8, hMPV084 (hMPV A, UniProt Q6WB98 19-102)
T8 construct: T411C-Q434C, L141C-A161C
Protocol: as §1, §2

hMPV089 = target: T9, hMPV089 (hMPV A, UniProt Q6WB98 19-102)
T9 construct: T411C-Q434C, L141C-A161C, S149T
Protocol: as §1, §2

hMPV078 = target: T10, hMPV078 (hMPV A, UniProt Q6WB98 19-102)
T10 construct: T411C-Q434C, A140C-S149C
Protocol: as §1, §2

hMPV086 = target: T11, hMPV086 (hMPV A, UniProt Q6WB98 19-102)
T11 construct: T411C-Q434C, L141C-A161C, T49I; also called hMP0086
Protocol: as §1, §2

hMPV082 = target: T12, hMPV082 (hMPV A, UniProt Q6WB98 19-102)
T12 construct: T411C-Q434C, A140C-S149C, G239A
Protocol: as §1, §2

hMPV083 = target: T13, hMPV083 (hMPV A, UniProt Q6WB98 19-102)
T13 construct: T411C-Q434C, A140C-S149C, A459P, G239A, T49I, T365I
Protocol: as §1, §2

hMPV087 = target: T14, hMPV087 (hMPV A, UniProt Q6WB98 19-102)
T14 construct: T411C-Q434C, L141C-A161C, T365I
Protocol: as §1, §2

hMPV066 = target: T15, hMPV066 (hMPV A, UniProt Q6WB98 19-102)
T15 construct: T49I
Protocol: as §1, §2

hMPV043 = target: T16, hMPV043 (hMPV A, UniProt Q6WB98 19-102)
T16 construct: G366C-D454C
Protocol: as §1, §2

hMPV047 = target: T17, hMPV047 (hMPV A, UniProt Q6WB98 19-102)
T17 construct: L141C-A159C
Protocol: as §1, §2

hMPV049 = target: T18, hMPV049 (hMPV A, UniProt Q6WB98 19-102)
T18 construct: E146C-T160C
Protocol: as §1, §2

hMPV053 = target: T19, hMPV053 (hMPV A, UniProt Q6WB98 19-102)
T19 construct: L110P
Protocol: as §1, §2

hMPV054 = target: T20, hMPV054 (hMPV A, UniProt Q6WB98 19-102)
T20 construct: S132P
Protocol: as §1, §2

hMPV060 = target: T21, hMPV060 (hMPV A, UniProt Q6WB98 19-102)
T21 construct: A459P
Protocol: as §1, §2

hMPV061 = target: T22, hMPV061 (hMPV A, UniProt Q6WB98 19-102)
T22 construct: G106A
Protocol: as §1, §2

hMPV A F WT Control [2] = target: T3, hMPV A F WT Control; remark: listed apart in the source
Protocol: as §1, §2

hMPV071 = target: T23, hMPV071 (hMPV A, UniProt Q6WB98 19-102)
T23 construct: T365I
Protocol: as §1, §2

hMPV045 = target: T24, hMPV045 (hMPV A, UniProt Q6WB98 19-102)
T24 construct: I137C-A159C
Protocol: as §1, §2

hMPV063 = target: T25, hMPV063 (hMPV A, UniProt Q6WB98 19-102)
T25 construct: G239A
Protocol: as §1, §2

hMPV050 = target: T26, hMPV050 (hMPV A, UniProt Q6WB98 19-102)
T26 construct: V148C-L158C
Protocol: as §1, §2

hMPV069 = target: T27, hMPV069 (hMPV A, UniProt Q6WB98 19-102)
T27 construct: S291I
Protocol: as §1, §2

hMPV059 = target: T28, hMPV059 (hMPV A, UniProt Q6WB98 19-102)
T28 construct: V449P
Protocol: as §1, §2

hMPV077 = target: T29, hMPV077 (hMPV A, UniProt Q6WB98 19-102)
T29 construct: Q476C, S477C
Protocol: as §1, §2

hMPV046 = target: T30, hMPV046 (hMPV A, UniProt Q6WB98 19-102)
T30 construct: A140C-S149C
Protocol: as §1, §2

hMPV075 = target: T31, hMPV075 (hMPV A, UniProt Q6WB98 19-102)
T31 construct: L473F
Protocol: as §1, §2

hMPV067 = target: T32, hMPV067 (hMPV A, UniProt Q6WB98 19-102)
T32 construct: S149T
Protocol: as §1, §2

B1: hMPV-2 mAb (antibody, V domains shown)
VH: QVQLQQSGAEVKKPGASVKVSCKASGYTFTSYGISWVRQAPGQGLEWMGWISGYNGNTNYAQTFQGTFTMTTDTSTSTAYMELRRLRSGDTAVYYCARDRYYASGSYNGMDVWGQGTTVTVSS
VL: QSALTQPPSASGAPGQRVTVSCSGSSSNVGSSSVYWYQQLPGTAPKLLIYRNNQRPSGVPDRFSGSKSGTSASLAISGLRSEDEADYYCAAWDDSLSGWVFGGGTKLTVLG
notes: human IgG1
In the case of B1, the “Response Shift” value (hMPV079) is reported as 0.791 nm, the “Response Shift” value (hMPV097) is reported as 0.923 nm and the “Response Shift” value (hMPV A F WT Control [1]) is reported as 0.898 nm. The “Response Shift” value (hMPV085) was 0.766 nm, the “Response Shift” value (hMPV081) was 0.837 nm and the “Response Shift” value (hMPV090) was 0.895 nm. The “Response Shift” value (hMPV088) was 0.878 nm, the “Response Shift” value (hMPV084) was 0.862 nm and the “Response Shift” value (hMPV089) was 0.891 nm. The “Response Shift” value (hMPV078) was 0.86 nm, the “Response Shift” value (hMPV086) was 0.851 nm and the “Response Shift” value (hMPV082) was 0.854 nm. For the same binder, the “Response Shift” value (hMPV083) was 0.847 nm, the “Response Shift” value (hMPV087) was 0.867 nm and the “Response Shift” value (hMPV066) was 0.767 nm. The “Response Shift” value (hMPV043) was 0.636 nm, the “Response Shift” value (hMPV047) was 0.268 nm and the “Response Shift” value (hMPV049) was 0.7 nm. The “Response Shift” value (hMPV053) was 0.717 nm, the “Response Shift” value (hMPV054) was 0.682 nm and the “Response Shift” value (hMPV060) was 0.769 nm. For the same binder, the “Response Shift” value (hMPV061) was 0.73 nm, the “Response Shift” value (hMPV A F WT Control [2]) was 0.782 nm and the “Response Shift” value (hMPV071) was 0.76 nm. The “Response Shift” value (hMPV045) was 0.582 nm, the “Response Shift” value (hMPV063) was 0.854 nm and the “Response Shift” value (hMPV050) was 0.669 nm. The “Response Shift” value (hMPV069) was 0.747 nm, the “Response Shift” value (hMPV059) was 0.719 nm and the “Response Shift” value (hMPV077) was 0.751 nm. For the same binder, the “Response Shift” value (hMPV046) was 0.573 nm, the “Response Shift” value (hMPV075) was 0.802 nm and the “Response Shift” value (hMPV067) was 0.677 nm.

Reference: patent US20240252614A1 (Pfizer, published 2024)
